Source: patent US20110040072A1, “MONO AND DI-SUBSTITUTED OXYCODONE COMPOUNDS AND COMPOSITIONS” (SHIRE LLC, priority 2006, published 2011)

Legend:
[1] = Intranasal bioavailability of oxycodone conjugates in rats; settings: for AUC % (Intranasal Bioavailability): reference = 100
[2] = Oral bioavailability / oral pharmacokinetics of oxycodone conjugates in rats; settings: for AUC % (Oral Bioavailability): reference = 100
[3] = Intravenous bioavailability of oxycodone conjugates in rats
[4] = background statement; cited from earlier work
[5] = relative to OXY = 100, n = 4 animals, analysis by LC-MS

Row | Compound | Oral (% AUC) [2, 5] [% AUC] | also measured
1 | COc1ccc2c3c1O[C@H]1C(OC(=O)[C@@H](NC(=O)[C@H](CC(=O)O)NC(=O)[C@@H](N)CCC(=O)O)C(C)C)=CC[C@@]4(OC(=O)[C@@H](NC(=O)[C@H](CC(=O)O)NC(=O)[C@@H](N)CCC(=O)O)C(C)C)[C@@H](C2)N(C)CC[C@]314 [(EDV)2-OC, [Glu-Asp-Val]2-OC] |  | AUC % (Intranasal Bioavailability) [1]: 20%; AUC % (Oral Bioavailability) [2]: 73%
2 | COc1ccc2c3c1O[C@H]1C(OC(=O)[C@@H](NC(=O)CNC(=O)[C@@H](N)CO)C(C)C)=CC[C@@]4(OC(=O)[C@@H](NC(=O)CNC(=O)[C@@H](N)CO)C(C)C)[C@@H](C2)N(C)CC[C@]314 [(SGV)2-OC, [Ser-Gly-Val]2-OC] |  | AUC % (Intranasal Bioavailability) [1]: 64%; AUC % (Intravenous Bioavailability) ([3]; reference = 100): 52%; AUC % (Oral Bioavailability) [2]: 103%
3 | COc1ccc2c3c1O[C@H]1C(OC(=O)[C@@H](NC(=O)[C@H](CCC(=O)O)NC(=O)[C@@H](N)C(C)C)C(C)C)=CC[C@@]4(OC(=O)[C@@H](NC(=O)[C@H](CCC(=O)O)NC(=O)[C@@H](N)C(C)C)C(C)C)[C@@H](C2)N(C)CC[C@]314 [(VEV)2-OC, [Val-Glu-Val]2-OC] |  | AUC % (Intranasal Bioavailability) [1]: 39%; AUC % (Oral Bioavailability) [2]: 104%
4 | COc1ccc2c3c1O[C@H]1C(OC(=O)[C@@H](NC(=O)[C@H](C)NC(=O)[C@H](C)N)C(C)C)=CC[C@@]4(O)[C@@H](C2)N(C)CC[C@]314 [Ala-Ala-Val-OC] | 85 | 
5 | COc1ccc2c3c1O[C@H]1C(OC(=O)[C@@H](NC(=O)[C@H](CC(=O)O)NC(=O)[C@@H](N)CC(=O)O)C(C)C)=CC[C@@]4(O)[C@@H](C2)N(C)CC[C@]314 [Asp-Asp-Val-OC] | 40 | 
6 | CC[C@H](C)[C@H](NC(=O)[C@H](CCC(=O)O)NC(=O)[C@@H](N)CCC(=O)O)C(=O)OC1=CC[C@@]2(O)[C@H]3Cc4ccc(OC)c5c4[C@@]2(CCN3C)[C@H]1O5 [Glu-Glu-Ile-OC] | 179 | 
7 | COc1ccc2c3c1O[C@H]1C(OC(=O)[C@H](CC(C)C)NC(=O)[C@H](CCC(=O)O)NC(=O)[C@@H](N)CCC(=O)O)=CC[C@@]4(O)[C@@H](C2)N(C)CC[C@]314 [Glu-Glu-Leu-OC] | 80 | 
8 | COc1ccc2c3c1O[C@H]1C(OC(=O)[C@H](Cc4ccccc4)NC(=O)[C@H](CCC(=O)O)NC(=O)[C@@H](N)CCC(=O)O)=CC[C@@]4(O)[C@@H](C2)N(C)CC[C@]314 [Glu-Glu-Phe-OC] | 49 | 
9 | COc1ccc2c3c1O[C@H]1C(OC(=O)[C@@H]4CCCN4C(=O)[C@H](CCC(=O)O)NC(=O)[C@@H](N)CCC(=O)O)=CC[C@@]4(O)[C@@H](C2)N(C)CC[C@]314 [Glu-Glu-Pro-OC] | 71 | 
10 | COc1ccc2c3c1O[C@H]1C(OC(=O)[C@@H](NC(=O)[C@H](CCC(=O)O)NC(=O)[C@@H](N)CCC(=O)O)C(C)C)=CC[C@@]4(O)[C@@H](C2)N(C)CC[C@]314 [Glu-Glu-Val-OC] | 55 | 
11 | CC[C@H](C)[C@H](NC(=O)CNC(=O)CN)C(=O)OC1=CC[C@@]2(O)[C@H]3Cc4ccc(OC)c5c4[C@@]2(CCN3C)[C@H]1O5 [Gly-Gly-Ile-OC] |  | Oral (% AUC) ([2]; relative to OXY = 100, dosed at 40% higher levels than calculated, n = 4 animals, LC-MS): 224 % AUC
12 | COc1ccc2c3c1O[C@H]1C(OC(=O)[C@H](Cc4ccccc4)NC(=O)CNC(=O)CN)=CC[C@@]4(O)[C@@H](C2)N(C)CC[C@]314 [Gly-Gly-Phe-OC] | 163 | 
13 | COc1ccc2c3c1O[C@H]1C(OC(=O)[C@@H](NC(=O)CNC(=O)CN)C(C)C)=CC[C@@]4(O)[C@@H](C2)N(C)CC[C@]314 [Gly-Gly-Val-OC] | 123 | 
14 | CC[C@H](C)[C@H](N)C(=O)N[C@H](C(=O)N[C@H](C(=O)OC1=CC[C@@]2(O)[C@H]3Cc4ccc(OC)c5c4[C@@]2(CCN3C)[C@H]1O5)[C@@H](C)CC)[C@@H](C)CC [Ile-Ile-Ile-OC] | 83 | 
15 | COc1ccc2c3c1O[C@H]1C(OC(=O)[C@@H](NC(=O)[C@H](CC(C)C)NC(=O)[C@@H](N)CC(C)C)C(C)C)=CC[C@@]4(O)[C@@H](C2)N(C)CC[C@]314 [Leu-Leu-Val-OC] | 81 | 
16 | CC[C@H](C)[C@H](NC(=O)[C@H](CCCCN)NC(=O)[C@@H](N)CCCCN)C(=O)OC1=CC[C@@]2(O)[C@H]3Cc4ccc(OC)c5c4[C@@]2(CCN3C)[C@H]1O5 [Lys-Lys-Ile-OC] | 74 | 

Row | Compound | Oral (% AUC) [2, 5] [% AUC] | also measured
17 | COc1ccc2c3c1O[C@H]1C(OC(=O)[C@H](CC(C)C)NC(=O)[C@H](CCCCN)NC(=O)[C@@H](N)CCCCN)=CC[C@@]4(O)[C@@H](C2)N(C)CC[C@]314 [Lys-Lys-Leu-OC] | 46 | 
18 | COc1ccc2c3c1O[C@H]1C(OC(=O)[C@H](Cc4ccccc4)NC(=O)[C@H](CCCCN)NC(=O)[C@@H](N)CCCCN)=CC[C@@]4(O)[C@@H](C2)N(C)CC[C@]314 [Lys-Lys-Phe-OC] | 37 | 
19 | COc1ccc2c3c1O[C@H]1C(OC(=O)[C@@H](NC(=O)[C@H](CCCCN)NC(=O)[C@@H](N)CCCCN)C(C)C)=CC[C@@]4(O)[C@@H](C2)N(C)CC[C@]314 [Lys-Lys-Val-OC] | 108 | 
20 | COc1ccc2c3c1O[C@H]1C(=O)CC[C@@]4(O)[C@@H](C2)N(C)CC[C@]314 [OXY, oxycodone] | 100 | Therapeutic plasma concentration [4]: 10 to 100 ng/mL; toxic plasma concentration [4]: greater than 200 ng/mL; AUC % (Oral Bioavailability) [2]: 100%
21 | COc1ccc2c3c1O[C@H]1C(OC(=O)[C@H](CC(C)C)NC(=O)[C@@H]4CCCN4C(=O)[C@@H]4CCCN4)=CC[C@@]4(OC(=O)[C@H](CC(C)C)NC(=O)[C@@H]5CCCN5C(=O)[C@@H]5CCCN5)[C@@H](C2)N(C)CC[C@]314 [[PPL]2-OC, [Pro-Pro-Leu]2-OC] |  | bioavailability by the intranasal route ([1]; versus oxycodone): substantially decreased; bioavailability by the intravenous route ([3]; versus oxycodone): substantially decreased
22 | OC-Succcinate | 79 | 
23 | Phe-Phe-Ile-OC | 59 | 
24 | Phe-Phe-Val-OC | 32 | 
25 | Pro-Pro-Ile-OC | 85 | AUC % (Oral Bioavailability) [2]: 85%
26 | Pro-Pro-Val-OC | 152 | AUC % (Oral Bioavailability) [2]: 152%
27 | Tyr-Tyr-Ile-OC | 85 | 
28 | Tyr-Tyr-Phe-OC | 73 | 
29 | Tyr-Tyr-Pro-OC | 59 | 
30 | Tyr-Tyr-Val-OC | 124 | AUC % (Oral Bioavailability) [2]: 124%
31 | Val-Val-Phe-OC | 120 | 
